Test results as given in patent publication US20030044847A1, “Methods for anlyzing interactions between proteins in live and intact cells” (priority 2001, published 2003).

B1: IFN-γ: protein secreted by lymphocytes, specifically T-cells and NK-cells; ligand of the IFN-γ receptor complex (protein, UniProt P01579 24-161, looked up)
Interferon gamma: QDPYVKEAENLKKYFNAGHSDVADNGTLFLGILKNWKEESDRKIMQSQIVSFYFKLFKNFKDDQSIQKSVETIKEDMNVKFFNSNKKKRDDFEKLTNYSVTDLNVQRKAIHELIQVMAELSPAAKTGKRKRSQMLFRG

Columns and labels:
CHO cells = details: absence of the human receptor chains; cited from earlier work
[1] = system: IFN-γR2/EBFP and IFN-γR2/GFP; assay: FRET between IFN-γR2/EBFP and IFN-γR2/GFP in COS-1 cells without IFN-γR1 chain; format: cell-based, human; details: cells expressing only IFN-γR2 chains, no IFN-γR1 chain; FIG. 9 left panels
From the text: (§1) FIG. 9 Fluorescence transfer between the FL-IFN-γR2/GFP and FL-IFN-γR2/EBFP chains. Both FL-IFN-γR2/GFP and FL-IFN-γR2/EBFP were transfected into COS-1 cells in the absence (left panels) or presence (right panels) of the unlabeled IFN-γR1 chain. Spectra were taken in the presence and absence of IFN-γ.
(§2) Construction of Vectors to Measure FRET in Cells and Transfections. As noted above, green and blue fluorescent proteins (GFP and BFP) were discovered and developed by a number of groups that enabled these fluorescent protein to be seen and localized in cells; and several groups have begun to use FRET to study the interactions of proteins in cells. In our studies, the IFN-γ receptor complex (FIG. 1) was used as the model system to evaluate the ability of FRET to provide insight into the structure of the receptor and to determine the molecular dynamics after attachment of the ligand IFN-γ to the receptor. In order to carry out these studies, IFN-γR1 and IFN-γR2 chains with BFP (or EBFP) and GFP fused to the carboxyl termini of their intracellular domains were constructed (FIG. 2, top). By fusing the DNA encoding the blue fluorescent protein (BFP) to the DNA encoding the carboxyl terminus of the IFN-γR1 chain and by fusing the DNA encoding GFP to the DNA encoding the carboxyl terminus of the IFN-γR2 chain, the cells produce IFN-γR11/BFP and IFN-γR2/GFP. […]

[2] = system: Chinese hamster ovary (CHO) q3 cells; assay: MHC class I antigen induction in CHO q3 cells transfected with human receptor chains; format: cell-based; details: CHO q3 cells with human receptor chains with or without GFP and EBFP; FIG. 3
From the text: The human receptor chains (IFN-γR1 and FL-IFN-γR2) without fluorescent proteins (left panel) and those with the fluorescent proteins (IFN-γR1/EBFP and FL-IFN-γR2/GFP) (right panel) were transfected into Chinese hamster ovary (CHO) q3 cells and MHC class I antigen induction measured in response to hamster and human IFN-γ. In the absence of the human receptor chains, Hu-IFN-γ has no effect on CHO cells (78, 87, 98). […] The CHO q3 cells were derived as follows. Hamster UCH-12 cells containing a stable translocation of human chromosome 3q were obtained from Carol Jones and David Patterson. UCH-12 cells were transfected with plasmid pJYI50R1.1 that encodes the intact HLAB7 gene (101) and the resulting cells designated q3. […] The stably transfected population of q3 cells was grown in F12 media supplemented with 10% FBS without selecting antibiotics. […] After three rounds of selection, individual clones were isolated by limiting dilution and amplified. […] MHC class I antigen induction in response to IFN-γ was performed as described (93).
Stable transformants were made in the CHO-derived cell line q3 by the Lipofectin method and limiting dilution clonal isolation.
Images, Spectra and Activity of human IFN-γR2/GFP and IFN-γR1/BFP transfected into COS-1 cells. […]

[3] = target: T1, IFN-γ receptor complex (IFN-γR1/EBFP and IFN-γR2/GFP) (Homo sapiens, UniProt P15260); assay: FRET between IFN-γR1/BFP (EBFP) and IFN-γR2/GFP (matched pair) in single live COS-1 cells; format: cell-based
T1 construct: EBFP (enhanced blue fluorescent protein); expressed in transfected cells; host or cells: COS-1
T1 sequence (P15260 18-489): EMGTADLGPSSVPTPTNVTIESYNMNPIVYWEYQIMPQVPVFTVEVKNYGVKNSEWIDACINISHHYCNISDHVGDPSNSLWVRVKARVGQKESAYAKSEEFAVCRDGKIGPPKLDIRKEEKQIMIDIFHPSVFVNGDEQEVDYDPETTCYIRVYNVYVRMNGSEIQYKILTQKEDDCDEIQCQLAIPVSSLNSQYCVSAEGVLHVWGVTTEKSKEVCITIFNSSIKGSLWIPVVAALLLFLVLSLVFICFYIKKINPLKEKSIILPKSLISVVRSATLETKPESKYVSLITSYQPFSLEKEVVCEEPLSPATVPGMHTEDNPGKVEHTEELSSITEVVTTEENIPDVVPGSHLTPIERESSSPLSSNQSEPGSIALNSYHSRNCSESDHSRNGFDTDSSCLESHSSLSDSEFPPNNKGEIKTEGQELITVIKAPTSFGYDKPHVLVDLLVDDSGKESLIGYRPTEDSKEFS
From the text: A mammalian expression vector was used to express human interferon γ receptor chains one and two (IFN-γR1 and IFN-γR2) with blue- and green-fluorescent proteins (BFP and GFP) fused to the carboxyl terminus of the chains, respectively. A tandem vector was used so that both chains were expressed in COS-1 cells under the control of the EF-1 promoter. A single cell expressing both of these chains was used to carry out the experiment to examine the effect of human IFN-γ on the distance between the chains and to determine if the chains were associated prior to addition of ligand. This is accomplished by using FRET.
Construction of Vectors to Measure FRET in Cells and Transfections. As noted above, green and blue fluorescent proteins (GFP and BFP) were discovered and developed by a number of groups that enabled these fluorescent protein to be seen and localized in cells; and several groups have begun to use FRET to study the interactions of proteins in cells. In our studies, the IFN-γ receptor complex (FIG. 1) was used as the model system to evaluate the ability of FRET to provide insight into the structure of the receptor and to determine the molecular dynamics after attachment of the ligand IFN-γ to the receptor. […]

[4] = target: T2, IFN-γR1/EBFP and IL-10R2/GFP (Homo sapiens, UniProt P15260); assay: FRET between mismatched receptor pair IFN-γR1/EBFP and IL-10R2/GFP in COS-1 cells; format: cell-based; details: two-photon excitation at 760 nm; FIG. 7
T2 construct: expressed in transfected cells; host or cells: COS-1
T2 sequence (P15260 18-489): T1 sequence (P15260 18-489)
From the text: as §2, with “IFN-γR2/GFP. In this way, the BFP and GFP were fused to the intracellular domains of IFN-γR1 and IFN-γR2, respectively (FIG. 2), to monitor interactions among these two receptor chains in intact cells-with and-without IFN-γ treatment.” for “IFN-γR2/GFP.”

[5] = target: T3, IFN-γR2/EBFP, IFN-γR2/GFP and IFN-γR1 chains (Homo sapiens, UniProt P15260); assay: FRET between IFN-γR2/EBFP and IFN-γR2/GFP in COS-1 cells with unlabeled IFN-γR1 chain; format: cell-based; details: cells expressing IFN-γR2/EBFP, FIG. 9 right panel
T3 construct: expressed in transfected cells; host or cells: COS-1
T3 sequence (P15260 18-489): T1 sequence (P15260 18-489)
From the text: as §1, §2

| Molecule | effect on CHO cells (CHO cells) | change in FRET spectrum in the presence of IFN-γ [1] | MHC class I antigen induction [2] | effect on the FRET of the matched receptor pair ([3]; IFN-γ 3500 units/ml added to medium, two-photon excitation at 760 nm, FIG. 8) | FRET signal after treatment of cells with IFN-γ ([3]; single COS-1 cell expressing IFN-γR1 and IFN-γR2 fused to BFP and GFP, excited at 760 nm, FIGS. 12 and 13) | effect on the fluorescence spectrum of the mismatched pair [4] | change in FRET spectrum in the presence of IFN-γ [5] |
| --- | --- | --- | --- | --- | --- | --- | --- |
| IFN-γ: protein secreted by lymphocytes, specifically T-cells and NK-cells; ligand of the IFN-γ receptor complex | no effect | no change in the spectrum | as effective as that of hamster IFN-γ |  |  |  |  |
| B1 |  |  |  | major reduction in the FRET | almost completely abolished | did not affect the spectrum | large change in the spectrum |
